Measurements published in publication PMC3268813.

Molecular target: synthetic wild-type CRN2 coiled coil peptide (human), Q9ULV4
Assay: SEC-MALS

- stoichiometry N: 3
Binder: VQNEAKLDEILKEIKSIKDTICNQDERISKLEQQMAKIAA (modifications not checked) [synthetic wild-type CRN2 coiled coil peptide, Q9ULV4 442-472]
